Experimental data: patent US20260167699A1 (Chugai, published 2026)

target: T1, FcγRIIIa extracellular domain, C-terminal His tag (human, UniProt P08637 17-208); assay: SPR, binding activity relative to GpH7-A5/GpH7-B3/GpL16-k0 (=100)
T1 construct: extracellular domain; also called 3a
T1 sequence (P08637 other isoform, or with tags, fused parts or gaps): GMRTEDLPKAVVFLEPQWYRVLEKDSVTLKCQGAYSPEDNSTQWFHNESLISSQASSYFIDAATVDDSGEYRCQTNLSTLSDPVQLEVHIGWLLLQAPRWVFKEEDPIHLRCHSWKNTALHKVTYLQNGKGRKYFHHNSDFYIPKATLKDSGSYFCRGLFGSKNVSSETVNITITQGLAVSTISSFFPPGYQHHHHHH

Row | Binder | He/Con 3a [%]
1 | GpH7-A5/GpH7-B3 variant S298_01G/GpL16-k0 (antibody, human IgG1, kappa, He Ab; copies: 1 + 1 + 2) heavy 1: not shown heavy 2: not shown light: DIVMTQSPLSLPVTPGEPASISCQASESLVHSNRNTYLHWYLQKPGQSPQLLIYKVSNRFSGVPDRFSGSGSGTDFTLKISRVEAEDVGVYYCSQNTHVPPTFGQGTKVEIERTVAAPSVFIFPPSDEQLKSGTASVVCLLNNFYPREAKVQWKVDNALQSGNSQESVTEQDSKDSTYSLSSTLTLSKADYEKHKVYACEVTHQGLSSPVTKSFNRGEC | 74.9
2 | GpH7-A5/GpH7-B3 variant S324_07I/GpL16-k0 (antibody, human IgG1, kappa, He Ab; copies: 1 + 1 + 2) heavy 1: not shown heavy 2: not shown light: DIVMTQSPLSLPVTPGEPASISCQASESLVHSNRNTYLHWYLQKPGQSPQLLIYKVSNRFSGVPDRFSGSGSGTDFTLKISRVEAEDVGVYYCSQNTHVPPTFGQGTKVEIERTVAAPSVFIFPPSDEQLKSGTASVVCLLNNFYPREAKVQWKVDNALQSGNSQESVTEQDSKDSTYSLSSTLTLSKADYEKHKVYACEVTHQGLSSPVTKSFNRGEC | 101
3 | GpH7-A5/GpH7-B3 variant S324_04F/GpL16-k0 (antibody, human IgG1, kappa, He Ab; copies: 1 + 1 + 2) heavy 1: not shown heavy 2: not shown light: DIVMTQSPLSLPVTPGEPASISCQASESLVHSNRNTYLHWYLQKPGQSPQLLIYKVSNRFSGVPDRFSGSGSGTDFTLKISRVEAEDVGVYYCSQNTHVPPTFGQGTKVEIERTVAAPSVFIFPPSDEQLKSGTASVVCLLNNFYPREAKVQWKVDNALQSGNSQESVTEQDSKDSTYSLSSTLTLSKADYEKHKVYACEVTHQGLSSPVTKSFNRGEC | 99.3
4 | GpH7-A5/GpH7-B3 variant S324_03V/GpL16-k0 (antibody, human IgG1, kappa, He Ab; copies: 1 + 1 + 2) heavy 1: not shown heavy 2: not shown light: DIVMTQSPLSLPVTPGEPASISCQASESLVHSNRNTYLHWYLQKPGQSPQLLIYKVSNRFSGVPDRFSGSGSGTDFTLKISRVEAEDVGVYYCSQNTHVPPTFGQGTKVEIERTVAAPSVFIFPPSDEQLKSGTASVVCLLNNFYPREAKVQWKVDNALQSGNSQESVTEQDSKDSTYSLSSTLTLSKADYEKHKVYACEVTHQGLSSPVTKSFNRGEC | 101
5 | GpH7-A5/GpH7-B3 variant S298_02A/GpL16-k0 (antibody, human IgG1, kappa, He Ab; copies: 1 + 1 + 2) heavy 1: not shown heavy 2: not shown light: DIVMTQSPLSLPVTPGEPASISCQASESLVHSNRNTYLHWYLQKPGQSPQLLIYKVSNRFSGVPDRFSGSGSGTDFTLKISRVEAEDVGVYYCSQNTHVPPTFGQGTKVEIERTVAAPSVFIFPPSDEQLKSGTASVVCLLNNFYPREAKVQWKVDNALQSGNSQESVTEQDSKDSTYSLSSTLTLSKADYEKHKVYACEVTHQGLSSPVTKSFNRGEC | 151
6 | GpH7-A5/GpH7-B3 variant S298_07I/GpL16-k0 (antibody, human IgG1, kappa, He Ab; copies: 1 + 1 + 2) heavy 1: not shown heavy 2: not shown light: DIVMTQSPLSLPVTPGEPASISCQASESLVHSNRNTYLHWYLQKPGQSPQLLIYKVSNRFSGVPDRFSGSGSGTDFTLKISRVEAEDVGVYYCSQNTHVPPTFGQGTKVEIERTVAAPSVFIFPPSDEQLKSGTASVVCLLNNFYPREAKVQWKVDNALQSGNSQESVTEQDSKDSTYSLSSTLTLSKADYEKHKVYACEVTHQGLSSPVTKSFNRGEC | 90.7
7 | GpH7-A5/GpH7-B3 variant S298_15Y/GpL16-k0 (antibody, human IgG1, kappa, He Ab; copies: 1 + 1 + 2) heavy 1: not shown heavy 2: not shown light: DIVMTQSPLSLPVTPGEPASISCQASESLVHSNRNTYLHWYLQKPGQSPQLLIYKVSNRFSGVPDRFSGSGSGTDFTLKISRVEAEDVGVYYCSQNTHVPPTFGQGTKVEIERTVAAPSVFIFPPSDEQLKSGTASVVCLLNNFYPREAKVQWKVDNALQSGNSQESVTEQDSKDSTYSLSSTLTLSKADYEKHKVYACEVTHQGLSSPVTKSFNRGEC | 80.6
8 | GpH7-A5/GpH7-B3 variant S298_12R/GpL16-k0 (antibody, human IgG1, kappa, He Ab; copies: 1 + 1 + 2) heavy 1: not shown heavy 2: not shown light: DIVMTQSPLSLPVTPGEPASISCQASESLVHSNRNTYLHWYLQKPGQSPQLLIYKVSNRFSGVPDRFSGSGSGTDFTLKISRVEAEDVGVYYCSQNTHVPPTFGQGTKVEIERTVAAPSVFIFPPSDEQLKSGTASVVCLLNNFYPREAKVQWKVDNALQSGNSQESVTEQDSKDSTYSLSSTLTLSKADYEKHKVYACEVTHQGLSSPVTKSFNRGEC | 52.1
9 | GpH7-A5/GpH7-B3 variant S298_14T/GpL16-k0 (antibody, human IgG1, kappa, He Ab; copies: 1 + 1 + 2) heavy 1: not shown heavy 2: not shown light: DIVMTQSPLSLPVTPGEPASISCQASESLVHSNRNTYLHWYLQKPGQSPQLLIYKVSNRFSGVPDRFSGSGSGTDFTLKISRVEAEDVGVYYCSQNTHVPPTFGQGTKVEIERTVAAPSVFIFPPSDEQLKSGTASVVCLLNNFYPREAKVQWKVDNALQSGNSQESVTEQDSKDSTYSLSSTLTLSKADYEKHKVYACEVTHQGLSSPVTKSFNRGEC | 106
10 | GpH7-A5/GpH7-B3 variant S324_06M/GpL16-k0 (antibody, human IgG1, kappa, He Ab; copies: 1 + 1 + 2) heavy 1: not shown heavy 2: not shown light: DIVMTQSPLSLPVTPGEPASISCQASESLVHSNRNTYLHWYLQKPGQSPQLLIYKVSNRFSGVPDRFSGSGSGTDFTLKISRVEAEDVGVYYCSQNTHVPPTFGQGTKVEIERTVAAPSVFIFPPSDEQLKSGTASVVCLLNNFYPREAKVQWKVDNALQSGNSQESVTEQDSKDSTYSLSSTLTLSKADYEKHKVYACEVTHQGLSSPVTKSFNRGEC | 124
11 | GpH7-A5/GpH7-B3 variant S298_16H/GpL16-k0 (antibody, human IgG1, kappa, He Ab; copies: 1 + 1 + 2) heavy 1: not shown heavy 2: not shown light: DIVMTQSPLSLPVTPGEPASISCQASESLVHSNRNTYLHWYLQKPGQSPQLLIYKVSNRFSGVPDRFSGSGSGTDFTLKISRVEAEDVGVYYCSQNTHVPPTFGQGTKVEIERTVAAPSVFIFPPSDEQLKSGTASVVCLLNNFYPREAKVQWKVDNALQSGNSQESVTEQDSKDSTYSLSSTLTLSKADYEKHKVYACEVTHQGLSSPVTKSFNRGEC | 71.9
12 | GpH7-A5/GpH7-B3 variant S298_18N/GpL16-k0 (antibody, human IgG1, kappa, He Ab; copies: 1 + 1 + 2) heavy 1: not shown heavy 2: not shown light: DIVMTQSPLSLPVTPGEPASISCQASESLVHSNRNTYLHWYLQKPGQSPQLLIYKVSNRFSGVPDRFSGSGSGTDFTLKISRVEAEDVGVYYCSQNTHVPPTFGQGTKVEIERTVAAPSVFIFPPSDEQLKSGTASVVCLLNNFYPREAKVQWKVDNALQSGNSQESVTEQDSKDSTYSLSSTLTLSKADYEKHKVYACEVTHQGLSSPVTKSFNRGEC | 51.4
13 | GpH7-A5/GpH7-B3 variant S298_08L/GpL16-k0 (antibody, human IgG1, kappa, He Ab; copies: 1 + 1 + 2) heavy 1: not shown heavy 2: not shown light: DIVMTQSPLSLPVTPGEPASISCQASESLVHSNRNTYLHWYLQKPGQSPQLLIYKVSNRFSGVPDRFSGSGSGTDFTLKISRVEAEDVGVYYCSQNTHVPPTFGQGTKVEIERTVAAPSVFIFPPSDEQLKSGTASVVCLLNNFYPREAKVQWKVDNALQSGNSQESVTEQDSKDSTYSLSSTLTLSKADYEKHKVYACEVTHQGLSSPVTKSFNRGEC | 69.2

Now from value to binder:

Row | He/Con 3a [%] | Binder
14 | 77.6 | GpH7-A5/GpH7-B3 variant S298_04F/GpL16-k0 (antibody, human IgG1, kappa, He Ab; copies: 1 + 1 + 2) heavy 1: not shown heavy 2: not shown light: DIVMTQSPLSLPVTPGEPASISCQASESLVHSNRNTYLHWYLQKPGQSPQLLIYKVSNRFSGVPDRFSGSGSGTDFTLKISRVEAEDVGVYYCSQNTHVPPTFGQGTKVEIERTVAAPSVFIFPPSDEQLKSGTASVVCLLNNFYPREAKVQWKVDNALQSGNSQESVTEQDSKDSTYSLSSTLTLSKADYEKHKVYACEVTHQGLSSPVTKSFNRGEC
15 | 103 | GpH7-A5/GpH7-B3 variant S298_03V/GpL16-k0 (antibody, human IgG1, kappa, He Ab; copies: 1 + 1 + 2) heavy 1: not shown heavy 2: not shown light: DIVMTQSPLSLPVTPGEPASISCQASESLVHSNRNTYLHWYLQKPGQSPQLLIYKVSNRFSGVPDRFSGSGSGTDFTLKISRVEAEDVGVYYCSQNTHVPPTFGQGTKVEIERTVAAPSVFIFPPSDEQLKSGTASVVCLLNNFYPREAKVQWKVDNALQSGNSQESVTEQDSKDSTYSLSSTLTLSKADYEKHKVYACEVTHQGLSSPVTKSFNRGEC
16 | 114 | GpH7-A5/GpH7-B3 variant S324_01G/GpL16-k0 (antibody, human IgG1, kappa, He Ab; copies: 1 + 1 + 2) heavy 1: not shown heavy 2: not shown light: DIVMTQSPLSLPVTPGEPASISCQASESLVHSNRNTYLHWYLQKPGQSPQLLIYKVSNRFSGVPDRFSGSGSGTDFTLKISRVEAEDVGVYYCSQNTHVPPTFGQGTKVEIERTVAAPSVFIFPPSDEQLKSGTASVVCLLNNFYPREAKVQWKVDNALQSGNSQESVTEQDSKDSTYSLSSTLTLSKADYEKHKVYACEVTHQGLSSPVTKSFNRGEC
17 | 62.7 | GpH7-A5/GpH7-B3 variant S298_09D/GpL16-k0 (antibody, human IgG1, kappa, He Ab; copies: 1 + 1 + 2) heavy 1: not shown heavy 2: not shown light: DIVMTQSPLSLPVTPGEPASISCQASESLVHSNRNTYLHWYLQKPGQSPQLLIYKVSNRFSGVPDRFSGSGSGTDFTLKISRVEAEDVGVYYCSQNTHVPPTFGQGTKVEIERTVAAPSVFIFPPSDEQLKSGTASVVCLLNNFYPREAKVQWKVDNALQSGNSQESVTEQDSKDSTYSLSSTLTLSKADYEKHKVYACEVTHQGLSSPVTKSFNRGEC
18 | 95.5 | GpH7-A5/GpH7-B3 variant S324_08L/GpL16-k0 (antibody, human IgG1, kappa, He Ab; copies: 1 + 1 + 2) heavy 1: not shown heavy 2: not shown light: DIVMTQSPLSLPVTPGEPASISCQASESLVHSNRNTYLHWYLQKPGQSPQLLIYKVSNRFSGVPDRFSGSGSGTDFTLKISRVEAEDVGVYYCSQNTHVPPTFGQGTKVEIERTVAAPSVFIFPPSDEQLKSGTASVVCLLNNFYPREAKVQWKVDNALQSGNSQESVTEQDSKDSTYSLSSTLTLSKADYEKHKVYACEVTHQGLSSPVTKSFNRGEC
19 | 87.2 | GpH7-A5/GpH7-B3 variant S298_06M/GpL16-k0 (antibody, human IgG1, kappa, He Ab; copies: 1 + 1 + 2) heavy 1: not shown heavy 2: not shown light: DIVMTQSPLSLPVTPGEPASISCQASESLVHSNRNTYLHWYLQKPGQSPQLLIYKVSNRFSGVPDRFSGSGSGTDFTLKISRVEAEDVGVYYCSQNTHVPPTFGQGTKVEIERTVAAPSVFIFPPSDEQLKSGTASVVCLLNNFYPREAKVQWKVDNALQSGNSQESVTEQDSKDSTYSLSSTLTLSKADYEKHKVYACEVTHQGLSSPVTKSFNRGEC
20 | 70.6 | GpH7-A5/GpH7-B3 variant S298_19Q/GpL16-k0 (antibody, human IgG1, kappa, He Ab; copies: 1 + 1 + 2) heavy 1: not shown heavy 2: not shown light: DIVMTQSPLSLPVTPGEPASISCQASESLVHSNRNTYLHWYLQKPGQSPQLLIYKVSNRFSGVPDRFSGSGSGTDFTLKISRVEAEDVGVYYCSQNTHVPPTFGQGTKVEIERTVAAPSVFIFPPSDEQLKSGTASVVCLLNNFYPREAKVQWKVDNALQSGNSQESVTEQDSKDSTYSLSSTLTLSKADYEKHKVYACEVTHQGLSSPVTKSFNRGEC
21 | 50 | GpH7-A5/GpH7-B3 variant S298_11K/GpL16-k0 (antibody, human IgG1, kappa, He Ab; copies: 1 + 1 + 2) heavy 1: not shown heavy 2: not shown light: DIVMTQSPLSLPVTPGEPASISCQASESLVHSNRNTYLHWYLQKPGQSPQLLIYKVSNRFSGVPDRFSGSGSGTDFTLKISRVEAEDVGVYYCSQNTHVPPTFGQGTKVEIERTVAAPSVFIFPPSDEQLKSGTASVVCLLNNFYPREAKVQWKVDNALQSGNSQESVTEQDSKDSTYSLSSTLTLSKADYEKHKVYACEVTHQGLSSPVTKSFNRGEC
22 | 113 | GpH7-A5/GpH7-B3 variant S324_02A/GpL16-k0 (antibody, human IgG1, kappa, He Ab; copies: 1 + 1 + 2) heavy 1: not shown heavy 2: not shown light: DIVMTQSPLSLPVTPGEPASISCQASESLVHSNRNTYLHWYLQKPGQSPQLLIYKVSNRFSGVPDRFSGSGSGTDFTLKISRVEAEDVGVYYCSQNTHVPPTFGQGTKVEIERTVAAPSVFIFPPSDEQLKSGTASVVCLLNNFYPREAKVQWKVDNALQSGNSQESVTEQDSKDSTYSLSSTLTLSKADYEKHKVYACEVTHQGLSSPVTKSFNRGEC
